Assay results: publication doi:10.1101/2025.03.07.642005 (bioRxiv, 2025)

What was measured:
[1] = molecular target: T1, GatA, subunit A of the aminoacyl-tRNA amidotransferase complex GatCAB (Arabidopsis, UniProt Q9LI77 45-537); test: SEC
T1 sequence: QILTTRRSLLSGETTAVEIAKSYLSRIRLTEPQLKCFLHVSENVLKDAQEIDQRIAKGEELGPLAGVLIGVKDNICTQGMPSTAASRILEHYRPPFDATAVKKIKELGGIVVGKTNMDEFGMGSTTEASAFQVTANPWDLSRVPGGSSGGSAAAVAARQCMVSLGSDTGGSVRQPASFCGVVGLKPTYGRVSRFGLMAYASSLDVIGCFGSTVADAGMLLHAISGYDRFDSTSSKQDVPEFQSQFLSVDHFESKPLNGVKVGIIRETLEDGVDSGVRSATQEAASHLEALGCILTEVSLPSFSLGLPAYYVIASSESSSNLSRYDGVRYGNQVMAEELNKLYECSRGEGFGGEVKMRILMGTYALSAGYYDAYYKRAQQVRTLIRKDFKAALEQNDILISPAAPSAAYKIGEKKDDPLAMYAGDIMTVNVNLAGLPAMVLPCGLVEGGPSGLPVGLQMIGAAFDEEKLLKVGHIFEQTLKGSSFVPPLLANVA

[2] = molecular target: T2, GatB, subunit B of the aminoacyl-tRNA amidotransferase complex GatCAB (Arabidopsis, UniProt Q9FV81 60-550); test: SEC
T2 sequence: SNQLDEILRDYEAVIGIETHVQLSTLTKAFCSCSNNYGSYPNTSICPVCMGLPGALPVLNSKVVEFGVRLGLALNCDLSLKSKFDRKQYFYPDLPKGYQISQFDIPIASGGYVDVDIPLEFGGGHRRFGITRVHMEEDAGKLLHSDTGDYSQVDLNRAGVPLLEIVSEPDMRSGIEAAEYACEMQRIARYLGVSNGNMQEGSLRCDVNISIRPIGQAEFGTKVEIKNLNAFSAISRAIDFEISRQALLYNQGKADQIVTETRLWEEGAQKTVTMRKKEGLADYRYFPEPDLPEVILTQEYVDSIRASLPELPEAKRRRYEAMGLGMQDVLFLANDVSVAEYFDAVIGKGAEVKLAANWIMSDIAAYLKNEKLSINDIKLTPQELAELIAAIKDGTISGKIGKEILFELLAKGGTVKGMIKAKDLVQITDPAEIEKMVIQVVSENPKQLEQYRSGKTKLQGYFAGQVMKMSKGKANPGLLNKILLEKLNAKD

binding result [1]: binds
binding result [2]: binds
B1: GatC, subunit C of the aminoacyl-tRNA amidotransferase complex GatCAB (natural protein)
chain: RSYSSDSDSSVLQPPDVARLAQTARISLTPAEIEECETKIRRVIDWFGQLQQVDVNSVEPAIRAEMDGGNLREDAPETFDNRDSIRASIPSFEDAYLKVPKILNKE
